One test concerns hnRNPA1. Description: Methylation of hnRNP A1, SDS-PAGE and fluorography (FIG. 8C). It is filed as biochemical, human. Conditions: 0.083 mg/ml hnRNP-A1. The protocol:
CARM1 and PRMT1 have different protein methyltransferase substrate specificities. CARM1 methylates histone H3, whereas PRMT1 methylates histone H4. […] (A,B) Calf thymus histones (Boehringer Mannheim) were incubated for 30 min at 30° C. in 32.5 μl reactions containing 20 mM Tris-Cl, 0.2 M NaCl, 4 mM EDTA, pH 8.0, 0.32 mg/ml individual histone (2a, 2b, 3, or 4) or 1.3 mg/ml mixed histone (M), 0.037 mg/ml GST-CARM1 or GST-PRMT1, and 7 μM S-adenosyl-L-[methyl-^3H]methionine (specific activity of 14.7 Ci/mmol). Reactions were stopped by addition of SDS-NuPAGE sample buffer (Novex), and 40% of each stopped reaction was then subjected to SDS-PAGE in 4-12% NuPAGE Bis-Tris gradient gels (Novex) using the Na-MES running buffer. Gels were stained with Coomassie Blue R-250 (A), and then subjected to fluorography (Chamberlin, M. (1978) Anal. Biochem. 98:132) for 12 h at −70° C. on sensitized Kodak XAR-5 film (B). Molecular weight markers (MW) are shown at left. Concentrations of GST fusion proteins were determined in comparison with bovine serum albumin standards (Sigma) by SDS polyacrylamide gel electrophoresis and Coomassie Blue staining; it was assumed that bovine serum albumin stained twice as intensely as most other proteins. Concentrations of histones and hnRNP A1 were determined by the method of Lowry (Lowry, O. H. et al. (1951) J. Biol. Chem. 193:265). […]

For the next test, the target named is T1, Gal4 DBD-GRIP1c (Mus musculus, UniProt Q61026).
T1 construct: coding for Gal4 DBD-GRIP1c where GRIP1c is GRIP1 amino acids 1121-1462; expressed in transfected cells; host or cells: CV-1 cells
Description: Reporter gene activation by Gal4 DBD-GRIP1c in transiently transfected CV-1 cells. It is filed as cell-based. As to conditions: co-expression with Gal4 DBD-GRIP1c, dose-dependent. The protocol: A) CV-1 cells in 6-well dishes (3.3 cm diameter well) were transiently transfected with 0.5 of μg pM.GRIP1c (coding for Gal4 DBD-GRIP1c where GRIP1c is GRIP1 amino acids 1121-1462), 0.5 μg of GK1 reporter gene (luciferase gene controlled by Gal4 binding sites) (Webb, P. et al., (1998) Mol. Endocrinol. 12:1605), and 0-0.8 μg of pSG5.HA-CARM1, using Superfectin (Qiagen) according to manufacturer's protocol. Total DNA was adjusted to 2.0 μg per well with the appropriate amount of pSG5. Cell extracts were prepared approximately 48 h after transfection and assayed with Promega Luciferase Assay kit. Relative light units of luciferase activity presented are the mean and standard deviation of three transfected wells. B) CV-1 cells were transfected as in A with the indicated amount of pM.GRIP1c and zero or 0.5 μg of pSG5.HA-CARM1.
In transient transfections of CV-1 cells, Gal4 DBD-GRIP1c weakly activates expression of a reporter gene with a promoter containing Gal4 binding sites; co-expression of CARM1 enhances reporter gene activity in a dose-dependent manner and provides a maximum stimulation of more than 10-fold (FIG. 5). CARM1 expression has little if any effect on the activity of Gal4DBD alone (FIG. 6A). CARM1 also enhances the activity of full length GRIP1 fused to Gal4DBD.
Background: A reporter such as luciferase makes a cellular process visible.

B1: CARM1: novel murine protein arginine methyltransferase and transcriptional coactivator, 608 amino acids (protein, listed as Mus musculus)
chain: MAAAAATAVGPGAGSAGVAGPGGAGPCATVSVFPGARLLTIGDANGEIQRHAEQQALRLEVRAGPDAAGIALYSHEDVCVFKCSVSRETECSRVGRQSFIITLGCNSVLIQFATPHDFCSFYNILKTCRGHTLERSVFSERTEESSAVQYFQFYGYLSQQQNMMQDYVRTGTYQRAILQNHTDFKDKIVLDVGCGSGILSFFAAQAGARKIYAVEASTMAQHAEVLVKSNNLTDRIVVIPGKVEEVSLPEQVDIIISEPMGYMLFNERMLESYLHAKKYLKPSGNMFPTIGDVHLAPFTDEQLYMEQFTKANFRYQPSFHGVDLSALRGAAVDEYFRQPVVDTFDIRILMAKSVKYTVNFLEAKEGDLHRIEIPFKFHMLHSGLVHGLAFWFDVAFIGSIMTVWLSTAPTEPLTHWYQVRCLFQSPLFAKAGDTLSGTCLLIANKRQSYDISIVAQVDQTGSKSSNLLDLKNPFFRYTGTTPSPPPGSHYTSPSENMWNTGSTYNLSSGVAVAGMPTAYDLSSVIAGGSSVGHNNLIPLANTGIVNHTHSRMGSIMSTGIVQGSSGAQGGGGSSSAHYAVNNQFTMGGPAISMASPMSIPTNTMHYGS
On to B1, for which, in the test with hnRNPA1, the “methylation of hnRNPA1” value was “not methylated”. In the test with Gal4 DBD-GRIP1c, the “maximum stimulation of reporter gene activity” value is “more than 10 fold”.

The values above are taken from patent publication US8247168B2, “Regulation of gene expression by protein methylation” (University of Southern California, priority 1998, dated 2012).
